Where “and” joins values, the source holds several entries; their conditions need not be identical. Equal values may be shown once.
B1: Phosphoglycerate kinase, P18912 (parent)
chain: MNKKTIRDVDVRGKRVFCRVDFNVPMEQGAITDDTRIRAALPTIRYLIEHGAKVILASHLGRPKGKVVEELRLDAVAKRLGELLERPVAKTNEAVGDEVKAAVDRLNEGDVLLLENVRFYPGEEKNDPELAKAFAELADLYVNDAFGAAHRAHASTEGIAHYLPAVAGFLMEKELEVLGKALSNPDRPFTAIIGGAKVKDKIGVIDNLLEKVDNLIIGGGLAYTFVKALGHDVGKSLLEEDKIELAKSFMEKAKEKGVRFYMPVDVVVADRFANDANTKVVPIDAIPADWSALDIGPKTRELYRDVIRESKLVVWNGPMGVFEMDAFAHGTKAIAEALAEALDTYSVIGGGDSAAAVEKFGLADKMDHISTGGGASLEFMEGKQLPGVVALEDK

Variants of: B1
Details: Geobacillus stearothermophilus, pH 7.5, 25 °C, Fluorescence, TEA 50 mM, reversible: yes, structure 1PHP, whole UniProt chain shown

Variant | unfolding free energy (GdnHCl, transition: 4) | unfolding free energy (Urea, transition: 4) | unfolding free energy (GdnHCl, transition: 3) | unfolding free energy (Urea, transition: 3) [kcal/mol]
W290Y W315Y F379W | 4.95 kcal/mol and 10.8 kcal/mol and 8.93 kcal/mol | 3.77 kcal/mol and 10.8 kcal/mol and 8.15 kcal/mol | – | –
W290Y | – | – | 11.4 kcal/mol and 8.2 kcal/mol | 8.15
